# Laboratory results reported in the DeepSol protein solubility set.
# Assay: soluble on expression in E. coli; label from the status in PepcDB or PDB records
row,Sequence,soluble on expression in E. coli
1,MFTGIINHCGEIRSMEALPDHTVLSIDTQFSDLQLGESIAIDGICVTVTQKKLGSFSCDLSPETLACTKARDYKIGSRINLERALRLTDRLGGHFVSGHVDQTAILESQKKHAEFIQMDFKNSSEERWNYLIPKGSVAVNGVSLTVNSVAGDYFSVMLIPHTLEHTNLNDLKEGQIVNIEFDLITKIIVQKTREALSHAKTI,soluble
2,MFYDLAIGIYDLLVHLAAPFSRKPRKMMKGHWVVYDLLRQQVEKDERYIWFHAASLGEFEQGRPLIESIRERYPDYKILQTFFSPSGYEVRKNYRGADIVCYLPFDKPRNVKKFLDIVNPCMAFFIKYEFWKNYLDELHKRRIPVYSVSSIFRKDQIFFKWYGGTYRNVLKDFDHLFVQNEASKRFLAKIGITRVTVVGDTRFDRVLQIREQAKELPLVEQFKNGAFTFVAGSSWGPDEDLFIEYFNSHPEMKLIIAPHVIDENHLVEIIGKLKRPSVRYTRADEKNVRKADCLIIDCFGLLSSIYRYGEIAYIGGGFGVGIHNTLEAAVYGIPVIFGPKYQKFMEAMQLIEAGGAYSIKDYNELKTLLDRLLTDEAFLRKTGTNAGNYVIGNSGATEKVLHMINFLEHHHHHH,not soluble
3,MGAFFMSVVSAFAGAAEACRPTGALQNVEVARVVDGDTVRLRDGRSVRLIGINAPELAHNGRTTEPFAEAAKQRLQALVSASDGRLALQPGRQARDHYGRTLAHLFDASGANLEARLLGEGLGYLVAVAPNTELTACQQAAERAARSANLGVWKRSPVLSLDRLAQSGFAVVRGRVLEVERNRGGIWLEMDGPLVLRIEPKVLKAFDAKRVMQMAGRSLEVRGWVVDRSRRGAVPAGKARWQMSVTDPAMLEWLPLEHHHHHH,not soluble
4,MGAIAPSSNILAKAMVDAIDFEVAKCIVELGPGTGSFTKEIMKRKKKRTTFILIEINEVFFKKLQKQYEDDASVVVIHGSAENIQRYVEELQIKGVDYVLSGLPFTSLPKEESSRILNNVMESLRENGRFITFQYSLVKKGFIEDFFPDIQLKKVWFNFPPAYVFSCKKSLEHHHHHH,soluble
5,MGCLGNSKTEDQRNEEKAQREANKKIEKQLQKDKQVYRATHRLLLLGAGESGKSTIVKQMRILHVNGFNGEGGEEDPQAARSNSDGEKATKVQDIKNNLKEAIETIVAAMSNLVPPVELANPENQFRVDYILSVMNVPDFDFPPEFYEHAKALWEDEGVRACYERSNEYQLIDCAQYFLDKIDVIKQDDYVPSDQDLLRCRVLTSGIFETKFQVDKVNFHMFDVGGQRDERRKWIQCFNDVTAIIFVVASSSYNMVIREDNQTNRLQEALNLFKSIWNNRWLRTISVILFLNKQDLLAEKVLAGKSKIEDYFPEFARYTTPEDATPEPGEDPRVTRAKYFIRDEFLRISTASGDGRHYCYPHFTCAVDTENIRRVFNDCRDIIQRMHLRQYELLGGHHHHHH,soluble
6,MGDDCSDHSSLCKHCCYEMIRDSIKDYKSGPLYARCPQCFRNISSLTRRKRRLTSEGHDENCPAPMVPMVNAEHSISLCDYTTSMMGGGQVNKGFESSSSLFLCFRKFPIGNYNQKFFVGDSLKNGRIQYRNTKYEYSKKHFRSYKFFMIFQICRSKFQNL,not soluble
7,MGDVQMGNCLRIPSANMAPALPEHGTAEASTSNPMPHAGNMTAGPQEHTAVEGCAGRQIADMWLSSLERPARRPSGSRSQPTAQSRPQSKLEKLTEQRQSMLQRAIILEDQWRSLQERCARTSVGGRQAFNLDILKGIIDRDKQALERMGGEGSYIAERHLHRIERTLQDFEKKISNQKKLQSHLAKANDFLARLKLLKDELSSRGENKDILNDIDLNIKDLEGILNELTRIEANGAGIQYDGCRGGAIAYFDSVTISLEAMLRSQDSGYFDYMRPALANVLQDGYSPSRRKAVSDAGMRGGASDGIS,not soluble
8,MGDVSAVSSSGNILLPQQDEVGGLSEALKKAVEKHKTEYSGDKKDRDYGDAFVMHKETALPLLLAAWRHGAPAKSEHHNGNVSGLHHNGKSELRIAEKLLKVTAEKSVGLISAEAKVDKSAALLSSKNRPLESVSGKKLSADLKAVESVSEVTDNATGISDDNIKALPGDNKAIAGEGVRKEGAPLARDVAPARMAAANTGKPEDKDHKKVKDVSQLPLQPTTIADLSQLTGGDEKMPLAAQSKPMMTIFPTADGVKGEDSSLTYRFQRWGNDYSVNIQARQAGEFSLIPSNTQVEHRLHDQWQNGNPQRWHLTRDDQQNPQQQQHRQQSGEEDDA,not soluble
9,MGEKAFKRPNVLSTIGAFGYRAAVFRNVLEAAKLDPSIYYTFISGPEIDPEQFSKVPENVEFTGFTENPFPYYKGSDLVITAGGHGTIMESLAFGLPILSFPDEKHAEQENNASVLEEAGYGKRMSYLTPPEVILACIREIFEDENYSKKTRRLMELAEVLEHHHHHH,soluble
10,MGEKIKLEHGAGGEIMEELLRDVILKTLTLKSAGGIGLDALDDGATIPFGDKHIVFTIDGHTVKPLFFPGGDIGRLAVSGTVNDLAVMGAEPIALANSMIIGEGLDMEVLKRVLKSMDETAREVPVPIVTGDTKVVEDKIEMFVITAGIGIAEHPVSDAGAKVGDAVLVSGTIGDHGIALMSHREGIAFETELKSDVAPIWDVVKAVAETIGWENIHAMKDPTRAGLSNALNEIARKSNVGILVREADIPIRPEVRAASEMLGISPYDVANEGKVVMVVAREYAEEALEAMRKTEKGRNAAIIGEVIADYRGKVLLETGIGGKRFMEPPEGDPVPRIC,soluble
11,MGELANCPKCNALFLKTKLQTVCQACIKEEEKSFETVYKFLRKQENRQSTLSRITEETGVEEELILKFIRQKRIQITHLPNLAYPCERCGTSIREGKFCKACQSDIKDQMDHLNHEDALKIEKENSKKDTYYAYNTKNSLEHHHHHH,soluble
12,MGETKADFRDMSRIPKVREGFYATNNQFQKAGPKGFVQVKVLENDNLYVRVDLPGVPDDAVRYRVDAVRQKVVFFSGETLNNGKEGVRQYSGTAGLGCDCCEITGVDAKMKDGVLRMILTRVKVVSKAQDNNNNKCTLTVPPFTGQSGIRLEDHPCLVSGRKGALIGVTKAGGGAHFAVDMPGVSPDDVEVYADEKEIRFKAEIKDVYEHDESGRTYLGSVQSPFPALISNNTIAWDAEFGVLRIAVIPPDDMTTINNKRNPIE,soluble
13,MGETKLFFGPNHPGMHGNFSVHMYVEGDIVKKARPVPGFLHRGFEKLMERRYWYSNISLIPRICVPEPDINEICYAMAIEKIAKVEVPERAQWIRMIVLELARIANHIWTVGGIGGPLGLYTASHWGVADRDRILDIFEALSGARVYHMYIIPGGVRKNMTPKIEEMIWKTLDYIESRLPDYENLIFKNRIVHSRLRGRLILTREQAVEMGVTGVGLRATGVEYDIRKVDPYLFYDRVEFEVPTATDGDAFSRVYLKFKEIPQSIKIIRQALEKMPQADRVNVPIGRGNGLRRIVPKGMAYAHVESTRGEYGFFVVSDGKNKPYRVAVRGASYPQGLYGIEKYLPGTRIEDVPIWLATMDVCAPEIDR,soluble
14,MGEWEIIDIGPFTQNLGKFAVDEENKIGQYGRLTFNKVIRPCMKKTIYENEGFREIKGYEYQLYVYASDKLFRADISEDYKTRGRKLLRFNGPVPPP,soluble
15,MGFFVSEGERCMTYCATEVTFPQGITSLETQVMLLQTHQNGMDIVTYSTPFHPVSHIWPDHPADRGILIWQGSEYAVTDCVVGAIEQASGHLYVGNNIPVKREESGWLFVVVHRLGEVIAACQVGDKVQLQVDTQYQASLSRGHSAGHLGYLALNKVLAQGYWRKDAERKDPQGYFDFNSYAQISSDVTPDCSTDVYRLGKTLRKRGLNSDDVLRDLSFIEQKTNEQLAQWLALASPIRLECTGSTLTDSRYWECDLHEANIARIPCGGTHCKGLTAFQSIQVTLKQVDEQHIEAVTCAQPSESELEHHHHHH,soluble
16,MGFQNLWFSHPRKFGPGSRSCRVCAGHHGLIRKYGLDLCRRCFREQARDIGFKKLD,not soluble
17,MGGGGHGGGITYKGVTVHTPKTWHTVTGKGLCAVMWFWILYRAKQDGPVVMGWRHPWDGHGDHGHGDHH,not soluble
18,MGGHHHHHHGENLYFQGISSETGEMGILWEFDPIINKWIRLSMKLKVERKPFAEGALREAYHTVSLGVGTDENYPLGTTTKLFPPIEMISPISKNNEAMTQLKNGTKFVLKLYKKEAEQQASRELYFEDVKMQMVCRDWGNKFNQKKPPKKIEFLMSWVVELIDRSPSSNGQPILCSIEPLLVGEFKKNNSNYGAVLTNRSTPQAFSHFTYELSNKQMIVVDIQGVDDLYTDPQIHTPDGKGFGLGNLGKAGINKFITTHKCNAVCALLDLDVKLGGVLSGNNKKQLQQGTMVMPDILPELMPSDNT,soluble
